Reference: PMC9482650, “Quantitative fragmentomics allow affinity mapping of interactomes” (Nature Communications, 2022)

Tests used:
Assay in all cases: holdup assay
Design in all cases: key: below the threshold = too weak to quantify, mostly under pKd 3.1 to 4
Conditions in all cases: plain residues with an end cap or a label only (N-terminal biotin on a linker: ttds)
[1] = target: AHNAK1, Q09666
[2] = target: T1, APBA1_1, Q02410
T1 sequence (Q02410 651-752, limits assumed, looked up): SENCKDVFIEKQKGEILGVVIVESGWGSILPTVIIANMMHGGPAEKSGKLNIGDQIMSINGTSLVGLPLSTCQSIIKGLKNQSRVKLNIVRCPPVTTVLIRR

[3] = target: T2, APBA2_1, Q99767
T2 sequence (Q99767 563-664, limits assumed, looked up): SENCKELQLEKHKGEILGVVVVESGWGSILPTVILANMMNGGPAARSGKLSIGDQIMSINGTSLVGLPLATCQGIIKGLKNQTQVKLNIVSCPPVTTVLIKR

[4] = target: T3, ARHGAP21, Q5T5U3
T3 sequence (Q5T5U3 45-169, limits assumed, looked up): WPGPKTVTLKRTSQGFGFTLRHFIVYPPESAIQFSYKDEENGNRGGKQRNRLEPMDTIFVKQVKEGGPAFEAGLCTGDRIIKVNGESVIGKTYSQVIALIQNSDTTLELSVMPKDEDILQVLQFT

[5] = target: DLG1_3, Q12959
Sequence of DLG1_3, Q12959 (Q12959 457-571): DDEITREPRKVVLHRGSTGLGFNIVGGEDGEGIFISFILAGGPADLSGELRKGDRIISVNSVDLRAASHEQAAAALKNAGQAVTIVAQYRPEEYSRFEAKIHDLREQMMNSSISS

[6] = target: DLG5_1, Q8TDM6
Sequence of DLG5_1, Q8TDM6 (Q8TDM6 617-713): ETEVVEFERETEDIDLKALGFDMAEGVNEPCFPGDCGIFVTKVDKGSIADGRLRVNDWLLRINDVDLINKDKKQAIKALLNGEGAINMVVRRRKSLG

[7] = target: FRMPD2_2, Q68DX3
Sequence of FRMPD2_2, Q68DX3 (Q68DX3 944-1038): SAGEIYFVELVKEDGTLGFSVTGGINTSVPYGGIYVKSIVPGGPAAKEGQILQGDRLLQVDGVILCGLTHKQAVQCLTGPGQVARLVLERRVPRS

[8] = target: GOPC, Q9HD26
[9] = target: GRASP, Q7Z6J2
Sequence of GRASP, Q7Z6J2 (Q7Z6J2 96-193): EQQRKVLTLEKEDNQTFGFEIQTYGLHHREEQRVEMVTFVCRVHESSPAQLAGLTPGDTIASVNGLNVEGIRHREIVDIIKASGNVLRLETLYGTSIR

[10] = target: GRID2IP_1, A4D2P6
Sequence of GRID2IP_1, A4D2P6 (A4D2P6 1-87): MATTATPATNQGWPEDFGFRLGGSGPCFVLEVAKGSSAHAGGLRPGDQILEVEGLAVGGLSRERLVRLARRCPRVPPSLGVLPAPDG

[11] = target: IL16_1, Q14005
Sequence of IL16_1, Q14005 (Q14005 210-306): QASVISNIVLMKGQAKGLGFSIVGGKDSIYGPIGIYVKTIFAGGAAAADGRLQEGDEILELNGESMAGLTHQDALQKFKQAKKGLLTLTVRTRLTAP

[12] = target: Inadl_9, Q8NI35
Sequence of Inadl_9, Q8NI35 (Q8NI35 1530-1615): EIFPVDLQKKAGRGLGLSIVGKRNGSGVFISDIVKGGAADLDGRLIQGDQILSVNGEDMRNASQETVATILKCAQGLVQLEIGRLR

[13] = target: LAP2, Q96RT1
Sequence of LAP2, Q96RT1 (Q96RT1 other isoform, or with tags, fused parts or gaps): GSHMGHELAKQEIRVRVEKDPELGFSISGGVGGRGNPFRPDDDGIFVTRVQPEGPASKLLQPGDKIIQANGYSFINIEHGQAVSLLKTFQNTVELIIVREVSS

[14] = target: LNX1_1, Q8TBB1
Sequence of LNX1_1, Q8TBB1 (Q8TBB1 261-371): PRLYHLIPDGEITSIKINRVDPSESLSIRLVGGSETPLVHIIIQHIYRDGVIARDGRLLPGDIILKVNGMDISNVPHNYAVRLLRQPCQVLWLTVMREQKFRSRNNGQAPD

[15] = target: MAGI2_4, Q86UL8
Sequence of MAGI2_4, Q86UL8 (Q86UL8 772-865): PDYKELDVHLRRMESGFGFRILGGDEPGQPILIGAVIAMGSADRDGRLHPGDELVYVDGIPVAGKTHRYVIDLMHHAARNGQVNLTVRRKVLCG

[16] = target: MAGI3_2, Q5TCQ9
Sequence of MAGI3_2, Q5TCQ9 (Q5TCQ9 398-503): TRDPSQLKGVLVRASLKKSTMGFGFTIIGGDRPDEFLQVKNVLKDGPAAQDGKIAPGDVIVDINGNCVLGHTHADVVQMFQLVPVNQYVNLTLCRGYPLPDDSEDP

[17] = target: T4, MPDZ_10, O75970
T4 sequence (O75970 1624-1722, limits assumed, looked up): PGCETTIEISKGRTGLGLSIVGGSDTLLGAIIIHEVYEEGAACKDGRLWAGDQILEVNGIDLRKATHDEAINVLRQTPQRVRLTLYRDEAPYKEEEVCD

[18] = target: T5, MPDZ_12, O75970
T5 sequence (O75970 1857-1958, limits assumed, looked up): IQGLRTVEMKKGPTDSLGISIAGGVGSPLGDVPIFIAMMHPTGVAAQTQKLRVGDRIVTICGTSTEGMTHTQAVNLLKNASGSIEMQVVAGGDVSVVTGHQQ

[19] = target: T6, MPDZ_5, O75970
T6 sequence (O75970 695-796, limits assumed, looked up): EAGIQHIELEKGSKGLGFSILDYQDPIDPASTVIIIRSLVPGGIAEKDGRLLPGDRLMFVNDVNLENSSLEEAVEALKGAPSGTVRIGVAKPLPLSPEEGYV

[20] = target: NHERF4_1, Q86UT5-2
Sequence of NHERF4_1, Q86UT5-2 (Q86UT5 other isoform, or with tags, fused parts or gaps): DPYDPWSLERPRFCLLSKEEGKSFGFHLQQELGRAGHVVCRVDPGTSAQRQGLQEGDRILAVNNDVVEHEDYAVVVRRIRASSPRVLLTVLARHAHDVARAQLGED

[21] = target: NHERF4_2, Q86UT5
Sequence of NHERF4_2, Q86UT5 (Q86UT5 220-308): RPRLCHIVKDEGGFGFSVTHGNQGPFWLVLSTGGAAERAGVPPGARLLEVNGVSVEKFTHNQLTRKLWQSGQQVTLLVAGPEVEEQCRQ

[22] = target: T7, PARD3B_1, Q8TEW8
T7 sequence (Q8TEW8 196-299, limits assumed, looked up): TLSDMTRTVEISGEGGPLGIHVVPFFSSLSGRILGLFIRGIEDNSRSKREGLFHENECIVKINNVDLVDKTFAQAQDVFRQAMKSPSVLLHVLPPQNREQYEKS

[23] = target: T8, RADIL, Q96JH8
T8 sequence (Q96JH8 971-1071, limits assumed, looked up): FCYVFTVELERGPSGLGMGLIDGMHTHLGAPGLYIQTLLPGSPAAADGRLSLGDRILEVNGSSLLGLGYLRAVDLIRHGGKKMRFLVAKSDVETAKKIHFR

[24] = target: T9, RAPGEF6, Q8TEU7
T9 sequence (Q8TEU7 525-625, limits assumed, looked up): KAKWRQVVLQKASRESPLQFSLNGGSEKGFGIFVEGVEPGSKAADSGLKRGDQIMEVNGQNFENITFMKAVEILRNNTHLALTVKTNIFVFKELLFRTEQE

[25] = target: SCRIB_1, Q14160
Sequence of SCRIB_1, Q14160 (Q14160 718-814): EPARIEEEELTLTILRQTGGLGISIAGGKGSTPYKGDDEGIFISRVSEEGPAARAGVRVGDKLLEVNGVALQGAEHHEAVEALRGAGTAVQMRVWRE

[26] = target: T10, SHANK1, Q9Y566
T10 sequence (Q9Y566 658-767, limits assumed, looked up): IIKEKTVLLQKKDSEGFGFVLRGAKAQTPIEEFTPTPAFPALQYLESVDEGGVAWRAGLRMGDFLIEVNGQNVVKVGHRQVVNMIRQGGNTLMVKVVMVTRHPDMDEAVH

Sequence of AHNAK1, Q09666 (Q09666 4-100): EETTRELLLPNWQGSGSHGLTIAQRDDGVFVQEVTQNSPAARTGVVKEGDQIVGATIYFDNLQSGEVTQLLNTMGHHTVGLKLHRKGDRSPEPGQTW

B1: RPS6KA1, Q15418 (peptide)
chain: RRVRKLPSTTL
[1]
  pKd: below the threshold
[2]
  pKd: below the threshold
[3]
  pKd: below the threshold
[4]
  pKd: below the threshold
[5]
  pKd: 3.63
[6]
  pKd: below the threshold
[7]
  pKd: below the threshold
[8]
  pKd: 4.96
[9]
  pKd: 4.17
[10]
  pKd: below the threshold
[11]
  pKd: below the threshold
[12]
  pKd: below the threshold
[13]
  pKd: below the threshold
[14]
  pKd: 3.76
[15]
  pKd: 3.78
[16]
  pKd: 4.23
[17]
  pKd: 3.76
[18]
  pKd: below the threshold
[19]
  pKd: 3.61
[20]
  pKd: 3.57
[21]
  pKd: below the threshold
[22]
  pKd: 4.4
[23]
  pKd: 3.54
[24]
  pKd: 3.7
[25]
  pKd: 3.48
[26]
  pKd: 4.17

B2: SLCO1C1, Q9NYB5 (peptide)
chain: NYWPGKETQL
[1]
  pKd: below the threshold
[2]
  pKd: below the threshold
[3]
  pKd: below the threshold
[4]
  pKd: 3.94
[5]
  pKd: 5.02
[6]
  pKd: below the threshold
[7]
  pKd: below the threshold
[8]
  pKd: 4.32
[9]
  pKd: below the threshold
[10]
  pKd: below the threshold
[11]
  pKd: below the threshold
[12]
  pKd: below the threshold
[13]
  pKd: 3.92
[14]
  pKd: below the threshold
[15]
  pKd: below the threshold
[16]
  pKd: 4.75
[17]
  pKd: below the threshold
[18]
  pKd: below the threshold
[19]
  pKd: below the threshold
[20]
  pKd: 4.04
[21]
  pKd: below the threshold
[22]
  pKd: 3.7
[23]
  pKd: below the threshold
[24]
  pKd: below the threshold
[25]
  pKd: 5.23
[26]
  pKd: 3.81

B3: MAS1, P04201 (peptide)
chain: CNTVTVETVV
[1]
  pKd: below the threshold
[2]
  pKd: below the threshold
[3]
  pKd: below the threshold
[4]
  pKd: below the threshold
[5]
  pKd: below the threshold
[6]
  pKd: below the threshold
[7]
  pKd: below the threshold
[8]
  pKd: below the threshold
[9]
  pKd: below the threshold
[10]
  pKd: below the threshold
[11]
  pKd: below the threshold
[12]
  pKd: below the threshold
[13]
  pKd: 3.48
[14]
  pKd: 3.52
[15]
  pKd: 3.49
[16]
  pKd: 3.78
[17]
  pKd: 3.51
[18]
  pKd: below the threshold
[19]
  pKd: 3.53
[20]
  pKd: below the threshold
[21]
  pKd: below the threshold
[22]
  pKd: below the threshold
[23]
  pKd: 3.63
[24]
  pKd: below the threshold
[25]
  pKd: below the threshold
[26]
  pKd: below the threshold
